Data on 18 variants can be found in the RNAGym collection of RNA variant scans (doi:10.1021/acssynbio.7b00057).

The labels stand for the following.
B1: Pistol ribozyme (parent)
chain: GGGUCGUUGUUCCAUAAUCGCGUGGAUAUGGCACGCAAGUUUCUACCGGGCACCGUAAAUGUCCGACUGGAGCCGUUCGGGCGGCUAUAAACAGACCUCAGGCCCGAAGCGUGGCGGCACCUGCCGCCGGUGGUAAAAAAGAUCGGAAGAGCACACGUCU

The variants in this data set derive from B1. The data set can be described thus: aptazyme ON/OFF ratio, guanine; higher = stronger switching; co-transcriptional cleavage with and without guanine.
As for GGGUCGCAAAUGUAUAAUCGCGUGGAUAUGGCACGCAAGUUUCUACCGGGCACCGUAAAUGUCCGACUGGAGCCGUUCGGGCGGCUAUAAACAGACCUCAGGCCCGAAGCGUGGCGGCACCUGCCGCCGGUGGUAAAAAAGAUCGGAAGAGCACACGUCU [U7C U8A G9A U10A C12G C13U], the “aptazyme ON/OFF ratio” value amounted to 1.27. As to GGGUCGCAAAUGGAUAAUCGCGUGGAUAUGGCACGCAAGUUUCUACCGGGCACCGUAAAUGUCCGACUGGAGCCGUUCGGGCGGCUAUAAACAGACCUCAGGCCCGAAGCGUGGCGGCACCUGCCGCCGGUGGUAAAAAAGAUCGGAAGAGCACACGUCU [U7C U8A G9A U10A C12G C13G], the “aptazyme ON/OFF ratio” value was found to be 1.24. Under GGGUCGCAAAUGAAUAAUCGCGUGGAUAUGGCACGCAAGUUUCUACCGGGCACCGUAAAUGUCCGACUGGAGCCGUUCGGGCGGCUAUAAACAGACCUCAGGCCCGAAGCGUGGCGGCACCUGCCGCCGGUGGUAAAAAAGAUCGGAAGAGCACACGUCU [U7C U8A G9A U10A C12G C13A] stands 1.23; under GGGUCGCAAAACCAUAAUCGCGUGGAUAUGGCACGCAAGUUUCUACCGGGCACCGUAAAUGUCCGACUGGAGCCGUUCGGGCGGCUAUAAACAGACCUCAGGCCCGAAGCGUGGCGGCACCUGCCGCCGGUGGUAAAAAAGAUCGGAAGAGCACACGUCU [U7C U8A G9A U10A U11A], 1.22. For the variant GGGUCGCAAAAACAUAAUCGCGUGGAUAUGGCACGCAAGUUUCUACCGGGCACCGUAAAUGUCCGACUGGAGCCGUUCGGGCGGCUAUAAACAGACCUCAGGCCCGAAGCGUGGCGGCACCUGCCGCCGGUGGUAAAAAAGAUCGGAAGAGCACACGUCU [U7C U8A G9A U10A U11A C12A], the “aptazyme ON/OFF ratio” value amounted to 1.2. Consider GGGUCGCAAAAGCAUAAUCGCGUGGAUAUGGCACGCAAGUUUCUACCGGGCACCGUAAAUGUCCGACUGGAGCCGUUCGGGCGGCUAUAAACAGACCUCAGGCCCGAAGCGUGGCGGCACCUGCCGCCGGUGGUAAAAAAGAUCGGAAGAGCACACGUCU [U7C U8A G9A U10A U11A C12G], for which the “aptazyme ON/OFF ratio” value turned out to be 1.23. Consider GGGUCGCAAAAGGAUAAUCGCGUGGAUAUGGCACGCAAGUUUCUACCGGGCACCGUAAAUGUCCGACUGGAGCCGUUCGGGCGGCUAUAAACAGACCUCAGGCCCGAAGCGUGGCGGCACCUGCCGCCGGUGGUAAAAAAGAUCGGAAGAGCACACGUCU [U7C U8A G9A U10A U11A C12G C13G], for which the “aptazyme ON/OFF ratio” value came to 1.28. Under GGGUCGCAAAAGAAUAAUCGCGUGGAUAUGGCACGCAAGUUUCUACCGGGCACCGUAAAUGUCCGACUGGAGCCGUUCGGGCGGCUAUAAACAGACCUCAGGCCCGAAGCGUGGCGGCACCUGCCGCCGGUGGUAAAAAAGAUCGGAAGAGCACACGUCU [U7C U8A G9A U10A U11A C12G C13A] stands 1.2; under GGGUCGCAAAUCGAUAAUCGCGUGGAUAUGGCACGCAAGUUUCUACCGGGCACCGUAAAUGUCCGACUGGAGCCGUUCGGGCGGCUAUAAACAGACCUCAGGCCCGAAGCGUGGCGGCACCUGCCGCCGGUGGUAAAAAAGAUCGGAAGAGCACACGUCU [U7C U8A G9A U10A C13G], 1.09; under GGGUCGCAAAUCAAUAAUCGCGUGGAUAUGGCACGCAAGUUUCUACCGGGCACCGUAAAUGUCCGACUGGAGCCGUUCGGGCGGCUAUAAACAGACCUCAGGCCCGAAGCGUGGCGGCACCUGCCGCCGGUGGUAAAAAAGAUCGGAAGAGCACACGUCU [U7C U8A G9A U10A C13A], 1.15. With GGGUCGCAAAUCUAUAAUCGCGUGGAUAUGGCACGCAAGUUUCUACCGGGCACCGUAAAUGUCCGACUGGAGCCGUUCGGGCGGCUAUAAACAGACCUCAGGCCCGAAGCGUGGCGGCACCUGCCGCCGGUGGUAAAAAAGAUCGGAAGAGCACACGUCU [U7C U8A G9A U10A C13U], the “aptazyme ON/OFF ratio” value was 1.26. Under GGGUCGCAAAAAUAUAAUCGCGUGGAUAUGGCACGCAAGUUUCUACCGGGCACCGUAAAUGUCCGACUGGAGCCGUUCGGGCGGCUAUAAACAGACCUCAGGCCCGAAGCGUGGCGGCACCUGCCGCCGGUGGUAAAAAAGAUCGGAAGAGCACACGUCU [U7C U8A G9A U10A U11A C12A C13U] stands 1.18. Regarding GGGUCGCAAAAAAAUAAUCGCGUGGAUAUGGCACGCAAGUUUCUACCGGGCACCGUAAAUGUCCGACUGGAGCCGUUCGGGCGGCUAUAAACAGACCUCAGGCCCGAAGCGUGGCGGCACCUGCCGCCGGUGGUAAAAAAGAUCGGAAGAGCACACGUCU [U7C U8A G9A U10A U11A C12A C13A], the “aptazyme ON/OFF ratio” value is 1.24.

On to GGGUCGCAAAAAGAUAAUCGCGUGGAUAUGGCACGCAAGUUUCUACCGGGCACCGUAAAUGUCCGACUGGAGCCGUUCGGGCGGCUAUAAACAGACCUCAGGCCCGAAGCGUGGCGGCACCUGCCGCCGGUGGUAAAAAAGAUCGGAAGAGCACACGUCU [U7C U8A G9A U10A U11A C12A C13G], for which the “aptazyme ON/OFF ratio” value was determined as 1.18. For GGGUCGCAAAUUCAUAAUCGCGUGGAUAUGGCACGCAAGUUUCUACCGGGCACCGUAAAUGUCCGACUGGAGCCGUUCGGGCGGCUAUAAACAGACCUCAGGCCCGAAGCGUGGCGGCACCUGCCGCCGGUGGUAAAAAAGAUCGGAAGAGCACACGUCU [U7C U8A G9A U10A C12U], the “aptazyme ON/OFF ratio” value was found to be 1.22. For GGGUCGCAAAUUGAUAAUCGCGUGGAUAUGGCACGCAAGUUUCUACCGGGCACCGUAAAUGUCCGACUGGAGCCGUUCGGGCGGCUAUAAACAGACCUCAGGCCCGAAGCGUGGCGGCACCUGCCGCCGGUGGUAAAAAAGAUCGGAAGAGCACACGUCU [U7C U8A G9A U10A C12U C13G], the “aptazyme ON/OFF ratio” value is 1.14. For GGGUCGCAAAUUUAUAAUCGCGUGGAUAUGGCACGCAAGUUUCUACCGGGCACCGUAAAUGUCCGACUGGAGCCGUUCGGGCGGCUAUAAACAGACCUCAGGCCCGAAGCGUGGCGGCACCUGCCGCCGGUGGUAAAAAAGAUCGGAAGAGCACACGUCU [U7C U8A G9A U10A C12U C13U], the “aptazyme ON/OFF ratio” value was determined as 1.28. With GGGUCGCAAAUUAAUAAUCGCGUGGAUAUGGCACGCAAGUUUCUACCGGGCACCGUAAAUGUCCGACUGGAGCCGUUCGGGCGGCUAUAAACAGACCUCAGGCCCGAAGCGUGGCGGCACCUGCCGCCGGUGGUAAAAAAGAUCGGAAGAGCACACGUCU [U7C U8A G9A U10A C12U C13A] the figure was 1.15.
